Experimental data: US20240083991A1 (Pfizer, published 2024)
Changes are numbered by the printed parent chain.

T1: human GDF8 (human, UniProt O14793 267-375)
T1 sequence (looked up): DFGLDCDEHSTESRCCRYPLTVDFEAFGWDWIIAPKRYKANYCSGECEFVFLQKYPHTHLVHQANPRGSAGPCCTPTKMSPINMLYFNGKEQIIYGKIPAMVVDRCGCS

T2: human mature BMP9 (human, UniProt Q9UK05 320-429)
T2 construct: also called GDF2; Human BMP9-biotin
T2 sequence: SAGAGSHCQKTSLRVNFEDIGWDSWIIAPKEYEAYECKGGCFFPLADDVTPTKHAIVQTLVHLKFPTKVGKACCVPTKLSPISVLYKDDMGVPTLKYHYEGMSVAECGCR

T3: cyno BMP9 (mature) (cynomolgus monkey, UniProt G7PEU8 320-429)
T3 construct: mature; Biotinylated for SPR capture; also called Cyno BMP9-biotin; cynomolgus monkey BMP9
T3 sequence: T2 sequence with A2T, D23N, V84I

T4: rat BMP9 (mature) (rat, UniProt M0RB87 320-430, Chemically biotinylated for capture on the SPR chip; sites not stated. Natural mature BMP9 is a disulfide-linked homodimer; one monomer chain is given.)
T4 construct: Biotinylated for SPR capture; also called Rat BMP9-biotin
T4 sequence: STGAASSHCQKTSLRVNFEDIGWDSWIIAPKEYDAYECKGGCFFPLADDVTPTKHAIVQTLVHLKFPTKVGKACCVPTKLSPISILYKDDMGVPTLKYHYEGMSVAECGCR

B1: Ab732 (antibody, human IgG1, lambda, V domains shown)
VH: QVQLVQSGAEVKKPGASVKVSCKASGYTFTSYGISWVRQAPGQGLEWMGWISAYIGNTNYAQKLQGRVTMTTDTSISTAYMELSRLRSDDTAVYYCARAYYMDVWGQGTTVTVSS
VL: NFMLTQPHSVSESPGKTVTISCTGSSGNIASNYVQWYQQRPGSAPTTVIYEDKQRPSGVPDRFSGSIDRSSNSASLTISGLKTEDEADYYCQSYDNHLSVVFGGGTKLTVLG
B2: Ab89 (antibody, human IgG1, lambda, V domains shown)
VH: QVQLVQSGAEVKKPGASVKVSCKASGYTFTSYYMHWVRQAPGQGLEWMGIINPSGGSTSYAQKFQGRVTMTRDTSTSTVYMELSSLRSEDTAVYYCASRDYYGSGRVYYYYGMDVWGQGTTVTVSS
VL: B1 VL with N28S, K53N, R69S, N96S, H97S, L98I, S99H
notes: Parental anti-BMP9 antibody from a human phage library, human IgG1/lambda; The heavy chain can be prepared with or without the C-terminal lysine
B3: Ab101 (antibody, human IgG1, lambda, V domains shown)
VH: B1 VH with I55N, I76T, S84R, R85S, Y101G
VL: B1 VL with N28S, H97S
notes: Parental clone converted to human IgG1/lambda; The heavy chain can be prepared with or without the C-terminal lysine; also called BMP9-0101
B4: Ab100 (antibody, human IgG1, lambda, V domains shown)
VH: QMQLVQSGAEVKKPGSSVKVSCKASGGTFSSYAISWVRQAPGQGLEWMGGIIPIFGTANYAQKFQGRVTITADESTSTAYMELSSLRSEDTAVYYCARVQLDLSYYYYYGMDVWGQGTTVTVSS
VL: QSALTQPASVSGSPGQSITISCTGTSSDVGSYNLVSWYQQHPGKAPKLMIYEVSKRPSGVSDRFSGSKSANTASLTISGLQAEDEADYYCSSFSINGPSFVFGTGTKVTVLG
notes: Parental anti-BMP9 antibody, human IgG1/lambda; The heavy chain can be prepared with or without the C-terminal lysine
B5: Ab93 (antibody, human IgG1, lambda, V domains shown)
VH: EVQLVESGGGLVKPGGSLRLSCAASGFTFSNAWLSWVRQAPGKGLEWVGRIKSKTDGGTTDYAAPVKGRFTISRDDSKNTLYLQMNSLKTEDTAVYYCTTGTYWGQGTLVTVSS
VL: QSVLTQPPSASGTPGQRVTISCSVTNSDIDIDNVHWYQQLPGMAPKLLFFHDYRPSGVSDRFSGSKSGTSASLAIVGLQSEDEGYYYCAGLDVAMRGPVFGGGTKLTVLG
notes: Parental clone converted to human IgG1/lambda; The heavy chain can be prepared with or without the C-terminal lysine; also called BMP9-0093
B6: Ab1076 Fab (Fab, V domains shown)
VH: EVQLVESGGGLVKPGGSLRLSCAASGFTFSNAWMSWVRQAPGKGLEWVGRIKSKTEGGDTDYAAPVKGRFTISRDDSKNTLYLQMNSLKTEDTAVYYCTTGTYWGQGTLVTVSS
VL: B5 VL with S27T, D32F, M43T, V93E
notes: Monovalent Fab fragment of Ab1076; also called Ab1076 Fab fragment
B7: Ab352 (antibody, human IgG1, lambda, V domains shown)
VH: EVQLVESGGGLVQPGGSLRLSCAASGFTFSNAWMSWVRQAPGKGLEWVGRIKSKTDSGTTDYAAPVKGRFTISRDNAKNSLYLQMNSLRAEDTAVYYCTTGTYWGQGTLVTVSS
VL: B5 VL with D32F, M43T, V76S, Q79R, G84A, Y85D
notes: Optimized variant of Ab93; The heavy chain can be prepared with or without the C-terminal lysine
B8: Ab804 (antibody, human IgG1, lambda, V domains shown)
VH: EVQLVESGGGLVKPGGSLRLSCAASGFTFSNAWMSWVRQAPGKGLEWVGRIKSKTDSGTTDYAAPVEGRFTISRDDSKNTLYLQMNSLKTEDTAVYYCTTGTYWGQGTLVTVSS
VL: B5 VL with S27P, D32F, M43T, D52E, V93E
notes: as for B7

What was measured:
human GDF8 = target: T1, human GDF8; assay: cell-based or functional assay
human mature BMP9 [1] = target: T2, human mature BMP9; assay: competition ELISA: antibody mixed with 5 nM BMP9-biotin, binding to coated ActRIIA (5 µg/ml) detected
Protocol: (§1) For competition ELISAs, each receptor protein was coated on a 384-well ELISA plate at its optimal coating concentration, 20 μl/well in PBS-CMF at 4° C. overnight. The next day, plates were washed 3 times with PBS+0.05% TWEEN™ 20 and blocked with PBS+1% BSA for 1 hr at RT with shaking. Anti-BMP9 Abs were serially diluted 3-fold in PBS+1% BSA, starting from 100 nM, then mixed with the same volume of the optimal concentration of biotinylated BMP9. The final concentration of biotinylated BMP9 corresponded to the EC₉₀ for each receptor, as determined in a preliminary experiment described above.
(§2) Serially diluted Abs were incubated with biotinylated BMP9 for at least 15 min at RT. Plates were washed as before, followed by addition of serially diluted Abs and the biotinylated BMP9 mixture. After incubating for 1 hr at RT, plates were washed 3 times with PBS+0.05% TWEEN™ 20. Secondary antibody was added (HRP-Streptavidin from BioLegend, cat #405210, 1:2000), followed by 1 hr incubation at RT. Plates were washed as before, signal was developed using TMB substrate, and the reaction stopped with 0.18 M H₂SO₄. Absorbance was read at 450 nm on an ENVISION® plate reader (Perkin Elmer).

human mature BMP9 [2] = target: T2, human mature BMP9; assay: competition ELISA: antibody mixed with 1.5 nM BMP9-biotin, binding to coated BMPRII (2 µg/ml) detected
Protocol: as §1, §2

human mature BMP9 [3] = target: T2, human mature BMP9; assay: competition ELISA: antibody mixed with 15 nM BMP9-biotin, binding to coated ActRIIB (5 µg/ml) detected
Protocol: as §1, §2

human mature BMP9 [4] = target: T2, human mature BMP9; assay: cell-based or functional assay
human mature BMP9 [5] = target: T2, human mature BMP9; assay: cell-based or functional assay; remark: listed apart in the source
human mature BMP9 [6] = target: T2, human mature BMP9; assay: competition ELISA: antibody mixed with 0.6 nM BMP9-biotin, binding to coated BMPRII (1 µg/ml) detected
Protocol: as §1, §2

human mature BMP9 [7] = target: T2, human mature BMP9; assay: SPR (Biacore T200), 37° C., biotinylated BMP9 captured on Sensor Chip CAP, Fab as analyte, 1:1 model
Protocol: (§3) The running and sample buffer was 10 mM HEPES pH 7.4, 0.15 M NaCl, 3 mM EDTA, 0.05% P-20 (HBS-EP+). Biotinylated mature human, cyno, and rat BMP9 proteins were reversibly captured onto a Sensor Chip CAP using the Biotin CAPture Reagent (Cytiva, 28920234) according to the manufacturer's instructions. The final capture level of human BMP9 was 100 resonance units (RU), cyno BMP9 was 50 RU, and rat BMP9 was 60 RU. Flow cell 1, without BMP9, was used as a reference flow cell. A two-fold dilution series of the Ab1076 Fab ranging from 100 nM to 6.2 nM was injected for 60 seconds at a flow rate of 100 μl per minute and the dissociation was monitored for 1800 seconds. Rate constants and affinities were determined by fitting the double referenced sensorgram data to a 1:1 model in BIACORE™ Insight Evaluation software version 3.0.1.12.15655 (Cytiva).

cyno BMP9 (mature) = target: T3, cyno BMP9 (mature); assay: as above
Protocol: as §3

rat BMP9 (mature) = target: T4, rat BMP9 (mature); assay: as above
Protocol: as §3

Binder	IC50 (read off the curve) (human mature BMP9 [1])	IC50 (read off the curve) (human mature BMP9 [2])	IC50 (read off the curve) (human mature BMP9 [3])	IC50 (read off the curve): BMP9-induced pSMAD1/5/9 nuclear translocation, TIME cells (human mature BMP9 [4])	IC50 (read off the curve) (human mature BMP9 [6])	other results
B1	–	–	–	–	–	IC50 (read off the curve): GDF8-induced CAGA-luciferase activity, C2C12 reporter cells (human GDF8): ~600 nM
B2	~2 nM	~4 nM	~8 nM	–	–	–
B3	~3 nM	–	~10 nM	~80 nM	–	–
B4	~3 nM	~4 nM	~8 nM	–	–	–
B5	~1 nM	~4 nM	~7 nM	~0.1 nM	~0.5 nM	IC50 (read off the curve): BMP9-induced pSMAD2 nuclear translocation, TIME cells (human mature BMP9 [5]): ~80 pM
B6	–	–	–	–	–	Kd (human mature BMP9 [7]): 0.0874 nM; koff (human mature BMP9 [7]): 3.84e-05 s⁻¹; kon (human mature BMP9 [7]): 440000 M⁻¹ s⁻¹; Kd (cyno BMP9 (mature)): 0.0658 nM; koff (cyno BMP9 (mature)): 3.84e-05 s⁻¹; kon (cyno BMP9 (mature)): 585000 M⁻¹ s⁻¹; Kd (rat BMP9 (mature)): 0.0986 nM; koff (rat BMP9 (mature)): 5.14e-05 s⁻¹; kon (rat BMP9 (mature)): 532000 M⁻¹ s⁻¹
B7	–	–	–	~50 pM	~0.2 nM	–
B8	–	–	–	–	~0.2 nM	–
